{
  "source": "paper PMC7698748",
  "binders": {"B1": {"name": "soluble recombinant human DPP4 (residues 29-766), His6-tagged, P27487 29-766 (enzyme)", "chain": "NKGTDDATADSRKTYTLTDYLKNTYRLKLYSLRWISDHEYLYKQENNILVFNAEYGNSSVFLENSTFDEFGHSINDYSISPDGQFILLEYNYVKQWRHSYTASYDIYDLNKRQLITEERIPNNTQWVTWSPVGHKLAYVWNNDIYVKIEPNLPSYRITWTGKEDIIYNGITDWVYEEEVFSAYSALWWSPNGTFLAYAQFNDTEVPLIEYSFYSDESLQYPKTVRVPYPKAGAVNPTVKFFVVNTDSLSSVTNATSIQITAPASMLIGDHYLCDVTWATQERISLQWLRRIQNYSVMDICDYDESSGRWNCLVARQHIEMSTTGWVGRFRPSEPHFTLDGNSFYKIISNEEGYRHICYFQIDKKDCTFITKGTWEVIGIEALTSDYLYYISNEYKGMPGGRNLYKIQLSDYTKVTCLSCELNPERCQYYSVSFSKEAKYYQLRCSGPGLPLYTLHSSVNDKGLRVLEDNSALDKMLQNVQMPSKKLDFIILNETKFWYQMILPPHFDKSKKYPLLLDVYAGPCSQKADTVFRLNWATYLASTENIIVASFDGRGSGYQGDKIMHAINRRLGTFEVEDQIEAARQFSKMGFVDNKRIAIWGWSYGGYVTSMVLGSGSGVFKCGIAVAPVSRWEYYDSVYTERYMGLPTPEDNLDHYRNSTVMSRAENFKQVEYLLIHGTADDNVHFQQSAQISKALVDVGVDFQAMWYTDEDHGIASSTAHQHIYTHMSHFIKQCFSLP"}},
  "molecular_target": "soluble trimeric SARS-CoV-2 spike protein (residues 1-1208) (SARS-CoV-2), P0DTC2",
  "assay": "SPR",
  "settings": "remark: other sources report otherwise",
  "data": [
    {"binder": "B1", "values": [
      {"measurement": "Kd", "value": "> 10", "unit": "µM"}
    ]}
  ]
}
